Earlier results in article PMC12461627, “Locking CBL TKBD in its native conformation presents a novel therapeutic opportunity in mutant CBL-dependent leukemia” (Molecular Therapy, 2025).

Target: pSYK peptide (Homo sapiens) (UniProt P43405)
Conditions: cited from earlier work

CBL TKBD (from UniProt P22681)
Kd: 1480 nM
